From patent publication US20240043533A1 (NGM BIOPHARMACEUTICALS, published 2024)
Read-outs that look alike come from different tables or passages of the source.

Key:
[1] = biological target: T1, human LILRA5 (human, UniProt A6NI73 42-299); assay: FACS on cells expressing human LILRA5, labeled anti-mouse Fc secondary antibody
T1 construct: whole, on cells
Procedure: (§1) ELISA assays were used to screen antibodies against human ILT3 and human LILRA1,2,4-6. […] These antibodies were rescreened by FACS for binding to human ILT3 and cyno ILT3 expressed on HEK-293T cells. The antibodies that bound to both human and cyno ILT3 were selected. This subset of antibodies were screened by FACS against human LILRB1-5 (ILT2, ILT4, ILT5, ILT3, and LILRB5, respectively), cyno LILRB5, and human LILRA1,2,4-6. For FACS screening, each antibody was incubated with cells expressing human ILT3, cyno ILT3, one of the LILRA proteins, or one of the LILRB proteins for 30 minutes at 4° C. After washing, the cells were incubated with labeled anti-mouse Fc antibody for 30 minutes at 4° C. After washing, cells were analyzed on a flow cytometer. Antibodies were selected on the criteria of binding to human ILT3, cyno ILT3, no or limited binding to other LILRB proteins, and no or limited binding to LILRA proteins.

[2] = biological target: T2, human LILRA6 (human, UniProt Q6PI73 24-447, limits assumed); assay: FACS on cells expressing human LILRA6, labeled anti-mouse Fc secondary antibody
T2 construct: Read out of the printed 'LILRA1,2,4-6'
Procedure: as §1

[3] = biological target: T3, human LILRA1 (human, UniProt O75019 17-489); assay: FACS on cells expressing human LILRA1, labeled anti-mouse Fc secondary antibody
T3 construct: whole, on cells
Procedure: as §1

[4] = biological target: ILT3 extracellular domain chimeric receptor on NFAT-GFP reporter cells (human); assay: cell-based or functional assay
[5] = biological target: T4, Cyno LILRB5 (Macaca fascicularis, UniProt A0A2K5VIP6); assay: FACS on cells expressing cyno LILRB5, labeled anti-mouse Fc secondary antibody
T4 construct: expressed on the cell surface; also called cynomolgus LILRB5
Procedure: as §1

[6] = biological target: T5, human LILRA4 (human, UniProt P59901 24-499); assay: FACS on cells expressing human LILRA4, labeled anti-mouse Fc secondary antibody
T5 construct: whole, on cells
Procedure: as §1

[7] = biological target: T6, human LILRA2 (human, UniProt Q8N149 24-483); assay: FACS on cells expressing human LILRA2, labeled anti-mouse Fc secondary antibody
T6 construct: whole, on cells
Procedure: as §1

[8] = biological target: T7, extracellular domain of cyno ILT3 (cynoILT3-ECD) (cynomolgus monkey); assay: SPR (Biacore), antibody captured via anti-Fc on CM5 chip, soluble ILT3-ECD injected, 37 C
T7 chain: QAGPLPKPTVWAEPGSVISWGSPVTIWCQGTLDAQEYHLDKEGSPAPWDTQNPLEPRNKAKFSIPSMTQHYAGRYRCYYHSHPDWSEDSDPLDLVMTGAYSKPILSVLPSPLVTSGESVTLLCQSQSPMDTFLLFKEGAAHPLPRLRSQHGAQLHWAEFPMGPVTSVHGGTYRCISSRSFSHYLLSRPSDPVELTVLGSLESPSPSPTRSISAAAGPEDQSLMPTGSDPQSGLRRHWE
Procedure: (§2) The binding affinities of anti-ILT3 antibodies to human ILT3 and cyno ILT3 were measured using a Biacore system (GE Healthcare LifeSciences). Briefly, anti-Fc antibody (Sigma-Aldrich) was immobilized on all four flow cells of a CM5 chip using amine coupling reagents (GE Healthcare LifeSciences). Antibodies were captured on flow cells 2, 3, and 4 using flow cell 1 as a reference. Concentrations ranging from 3.3-10 nM of human or cyno ILT3-ECD were injected at a flow rate of 50 μL/min at 37° C. Kinetic data were collected over time and fit using the simultaneous global fit equation to yield affinity constants (KD values) for each antibody.

[9] = biological target: T8, extracellular domain of human ILT3 (huILT3-ECD) (human, UniProt Q8NHJ6 22-259); assay: as above
T8 construct: also called human ILT3-ECD
Procedure: as §2

[10] = biological target: T9, LILRB3 (human, UniProt O75022); assay: FACS on cells expressing human LILRB3, labeled anti-mouse Fc secondary antibody
T9 construct: expressed on the cell surface; also called human LILRB3; ILT5
Procedure: as §1

[11] = biological target: T10, human LILRB2 (human, UniProt Q8N423 22-597); assay: FACS on cells expressing human LILRB2, labeled anti-mouse Fc secondary antibody
T10 construct: whole, on cells; also called ILT4
Procedure: as §1

[12] = biological target: T11, ILT3ECD-Fc (human ILT3 extracellular domain fused to an immunoglobulin Fc region) (human, UniProt Q8NHJ6 22-259); assay: blocking of the binding of ILT3-ECD-Fc (1 µg/mL) to endogenous fibronectin on Detroit 551 cells; imaging with polyclonal anti-ILT3 and AlexaFluor 647 secondary antibody
T11 construct: also called Human ILT3ECD-Fc; not shown: immunoglobulin Fc region
Procedure: FIG. 14. ILT3 binding to endogenously expressed fibronectin. Detroit 551 cells were plated onto poly-D-lysine-coated 384-well plates at 6×10³ cells/well and incubated for two days. Monolayers were rinsed with HBSS containing Mg²⁺ and Ca²⁺. ILT3-ECD-Fc was added to the wells in the presence of ant-ILT3 antibody 16C5, anti-ILT3 antibody ch5A7, or control anti-KLH antibody. The antibodies were serially diluted 3-fold in media containing the ILT3-ECD-Fc (range of 66 nM to 0.27 nM). Cells were incubated for 1 hr at room temperature and then washed three times with HBSS and fixed with 3.7% formalin for 10 min. Monolayers were rinsed with PBS and blocked with 1% BSA in PBS before staining with Hoechst stain and a commercially available polyclonal anti-ILT3 antibody. An AlexaFluor 647-conjugated rabbit anti-goat Fc secondary antibody was added, cells were imaged, and the level of fluorescence was quantified using a CellInsight imaging system.
The Detroit 551 cell line is composed of human skin fibroblasts established from normal fetal tissue. These cells have endogenously produced fibronectin bound to receptors on their surface. […] An AlexaFluor 647-conjugated rabbit anti-goat Fc secondary antibody (Jackson ImmunoResearch Labs) was added, cells were imaged, and the level of fluorescence was quantified using a Celllnsight imaging system.

[13] = biological target: T12, LILRB5 (human, UniProt O75023); assay: FACS on cells expressing human LILRB5, labeled anti-mouse Fc secondary antibody
T12 construct: expressed on the cell surface; also called human LILRB5; CD85C
Procedure: as §1

[14] = biological target: human ILT3 expressed on myeloid cells (THP-1 cells, primary dendritic cells, macrophages) (human, UniProt Q8NHJ6 22-448); assay: cell-based or functional assay
[15] = biological target: T13, LILRB4; assay: FACS on cells expressing human LILRB4 (ILT3), labeled anti-mouse Fc secondary antibody
T13 construct: the construct expressed on the cells is not described further; also called human ILT3 expressed on cells for the FACS screen; ILT3
Procedure: as §1

[16] = biological target: T7, extracellular domain of cyno ILT3 …; assay: SPR (Biacore), antibody captured via anti-Fc on CM5 chip, soluble ILT3-ECD injected, 37 C
Procedure: as §2
(§3) The binding affinity of Hz5A7.v5 to human ILT3 and cyno ILT3 was determined using a Biacore system as described herein and compared with the binding affinity of the parental chimeric 5A7 (ch5A7) antibody and humanized 5A7 without any CDR modifications (Hz5A7.v1) (see Table 12).

[17] = biological target: T8, extracellular domain of human ILT3 …; assay: as above; remark: listed apart in the source
Procedure: as §2, §3

[18] = biological target: T14, cynomolgus ILT3 expressed on cells (THP-1 reporter cells transduced with cyno ILT3); cyno monocyte-derived … (cynomolgus monkey); assay: cell-based or functional assay
T14 chain: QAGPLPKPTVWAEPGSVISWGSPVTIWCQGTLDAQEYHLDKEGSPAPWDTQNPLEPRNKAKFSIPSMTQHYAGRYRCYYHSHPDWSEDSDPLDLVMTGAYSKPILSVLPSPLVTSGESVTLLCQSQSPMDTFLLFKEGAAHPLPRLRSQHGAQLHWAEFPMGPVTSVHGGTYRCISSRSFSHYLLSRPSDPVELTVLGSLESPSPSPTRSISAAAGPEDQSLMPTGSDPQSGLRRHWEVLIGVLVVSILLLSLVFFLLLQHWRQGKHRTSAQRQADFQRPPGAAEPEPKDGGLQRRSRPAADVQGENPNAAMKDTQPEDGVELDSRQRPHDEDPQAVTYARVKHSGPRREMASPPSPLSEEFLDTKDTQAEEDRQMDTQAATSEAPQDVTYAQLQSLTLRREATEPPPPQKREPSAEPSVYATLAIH

[19] = biological target: T15, human plasma-derived fibronectin (Millipore) (human, UniProt P02751 32-2477); assay: SPR (Biacore), human plasma fibronectin amine-coupled on CM5 chip, ECD-Fc injected, 37 C
T15 construct: Bought protein; also called human plasma fibronectin; human fibronectin
Procedure: (§4) The binding of ILT3 to fibronectin was evaluated by Biacore. Human plasma fibronectin was immobilized onto a CM5 sensor chip surface (flow cell 2) using standard amine coupling chemistry. Collagen type IV was immobilized onto flow cell 3 and used as a control. Human ILT3ECD-Fc or human LAIR1ECD-Fc were injected over both surfaces at different concentrations (125-4000 nM) at a flow rate of 50 μL/min at 37° C. Kinetic data were collected over time and fit using the simultaneous global fit equation to yield affinity constants (KD values) for each antibody.

[20] = biological target: T16, collagen type IV; assay: SPR (Biacore), collagen type IV amine-coupled on CM5 chip, LAIR1ECD-Fc injected at 125-4000 nM, 37 C
T16 construct: Control surface in the Biacore experiment; also called collagen IV
Procedure: as §4

ILT3 extracellular domain chimeric receptor on NFAT-GFP reporter cells (human), sequence (Q8NHJ6 22-259, change not shown): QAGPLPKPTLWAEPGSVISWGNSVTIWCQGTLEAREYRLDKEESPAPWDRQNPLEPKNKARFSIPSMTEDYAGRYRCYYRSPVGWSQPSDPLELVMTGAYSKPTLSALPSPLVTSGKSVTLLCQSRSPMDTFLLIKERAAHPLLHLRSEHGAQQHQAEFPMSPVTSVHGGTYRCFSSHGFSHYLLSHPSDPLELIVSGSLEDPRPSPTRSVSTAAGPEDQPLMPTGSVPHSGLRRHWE
T10 sequence (Q8N423 22-597): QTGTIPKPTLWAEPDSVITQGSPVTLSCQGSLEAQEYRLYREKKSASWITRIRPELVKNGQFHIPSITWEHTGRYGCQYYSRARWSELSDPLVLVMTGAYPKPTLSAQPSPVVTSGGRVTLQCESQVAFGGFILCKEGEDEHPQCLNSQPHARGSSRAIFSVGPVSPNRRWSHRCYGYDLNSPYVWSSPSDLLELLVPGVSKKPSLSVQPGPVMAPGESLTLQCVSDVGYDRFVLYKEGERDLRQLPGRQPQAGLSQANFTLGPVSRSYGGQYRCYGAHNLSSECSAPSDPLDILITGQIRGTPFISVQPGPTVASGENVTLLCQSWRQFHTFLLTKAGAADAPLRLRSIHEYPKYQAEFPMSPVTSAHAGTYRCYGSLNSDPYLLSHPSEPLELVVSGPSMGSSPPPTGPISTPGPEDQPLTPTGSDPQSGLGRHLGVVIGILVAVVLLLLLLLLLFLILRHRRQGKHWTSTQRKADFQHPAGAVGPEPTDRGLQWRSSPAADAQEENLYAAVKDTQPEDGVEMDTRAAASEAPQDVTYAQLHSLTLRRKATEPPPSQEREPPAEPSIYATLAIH
T6 sequence (Q8N149 24-483): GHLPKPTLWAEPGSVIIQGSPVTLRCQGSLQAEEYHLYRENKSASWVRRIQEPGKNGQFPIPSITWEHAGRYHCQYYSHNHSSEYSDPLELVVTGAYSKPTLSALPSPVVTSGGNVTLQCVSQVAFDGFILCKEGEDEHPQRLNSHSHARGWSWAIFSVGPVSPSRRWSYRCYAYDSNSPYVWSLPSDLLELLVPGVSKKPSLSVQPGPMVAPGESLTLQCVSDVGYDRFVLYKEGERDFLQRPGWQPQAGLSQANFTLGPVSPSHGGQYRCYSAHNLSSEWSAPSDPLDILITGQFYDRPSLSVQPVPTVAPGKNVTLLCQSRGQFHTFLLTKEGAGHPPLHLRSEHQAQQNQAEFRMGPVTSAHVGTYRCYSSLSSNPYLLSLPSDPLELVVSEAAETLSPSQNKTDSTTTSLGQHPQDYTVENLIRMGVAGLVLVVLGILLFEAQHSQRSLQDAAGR
T15 sequence (P02751 32-2477 limits assumed): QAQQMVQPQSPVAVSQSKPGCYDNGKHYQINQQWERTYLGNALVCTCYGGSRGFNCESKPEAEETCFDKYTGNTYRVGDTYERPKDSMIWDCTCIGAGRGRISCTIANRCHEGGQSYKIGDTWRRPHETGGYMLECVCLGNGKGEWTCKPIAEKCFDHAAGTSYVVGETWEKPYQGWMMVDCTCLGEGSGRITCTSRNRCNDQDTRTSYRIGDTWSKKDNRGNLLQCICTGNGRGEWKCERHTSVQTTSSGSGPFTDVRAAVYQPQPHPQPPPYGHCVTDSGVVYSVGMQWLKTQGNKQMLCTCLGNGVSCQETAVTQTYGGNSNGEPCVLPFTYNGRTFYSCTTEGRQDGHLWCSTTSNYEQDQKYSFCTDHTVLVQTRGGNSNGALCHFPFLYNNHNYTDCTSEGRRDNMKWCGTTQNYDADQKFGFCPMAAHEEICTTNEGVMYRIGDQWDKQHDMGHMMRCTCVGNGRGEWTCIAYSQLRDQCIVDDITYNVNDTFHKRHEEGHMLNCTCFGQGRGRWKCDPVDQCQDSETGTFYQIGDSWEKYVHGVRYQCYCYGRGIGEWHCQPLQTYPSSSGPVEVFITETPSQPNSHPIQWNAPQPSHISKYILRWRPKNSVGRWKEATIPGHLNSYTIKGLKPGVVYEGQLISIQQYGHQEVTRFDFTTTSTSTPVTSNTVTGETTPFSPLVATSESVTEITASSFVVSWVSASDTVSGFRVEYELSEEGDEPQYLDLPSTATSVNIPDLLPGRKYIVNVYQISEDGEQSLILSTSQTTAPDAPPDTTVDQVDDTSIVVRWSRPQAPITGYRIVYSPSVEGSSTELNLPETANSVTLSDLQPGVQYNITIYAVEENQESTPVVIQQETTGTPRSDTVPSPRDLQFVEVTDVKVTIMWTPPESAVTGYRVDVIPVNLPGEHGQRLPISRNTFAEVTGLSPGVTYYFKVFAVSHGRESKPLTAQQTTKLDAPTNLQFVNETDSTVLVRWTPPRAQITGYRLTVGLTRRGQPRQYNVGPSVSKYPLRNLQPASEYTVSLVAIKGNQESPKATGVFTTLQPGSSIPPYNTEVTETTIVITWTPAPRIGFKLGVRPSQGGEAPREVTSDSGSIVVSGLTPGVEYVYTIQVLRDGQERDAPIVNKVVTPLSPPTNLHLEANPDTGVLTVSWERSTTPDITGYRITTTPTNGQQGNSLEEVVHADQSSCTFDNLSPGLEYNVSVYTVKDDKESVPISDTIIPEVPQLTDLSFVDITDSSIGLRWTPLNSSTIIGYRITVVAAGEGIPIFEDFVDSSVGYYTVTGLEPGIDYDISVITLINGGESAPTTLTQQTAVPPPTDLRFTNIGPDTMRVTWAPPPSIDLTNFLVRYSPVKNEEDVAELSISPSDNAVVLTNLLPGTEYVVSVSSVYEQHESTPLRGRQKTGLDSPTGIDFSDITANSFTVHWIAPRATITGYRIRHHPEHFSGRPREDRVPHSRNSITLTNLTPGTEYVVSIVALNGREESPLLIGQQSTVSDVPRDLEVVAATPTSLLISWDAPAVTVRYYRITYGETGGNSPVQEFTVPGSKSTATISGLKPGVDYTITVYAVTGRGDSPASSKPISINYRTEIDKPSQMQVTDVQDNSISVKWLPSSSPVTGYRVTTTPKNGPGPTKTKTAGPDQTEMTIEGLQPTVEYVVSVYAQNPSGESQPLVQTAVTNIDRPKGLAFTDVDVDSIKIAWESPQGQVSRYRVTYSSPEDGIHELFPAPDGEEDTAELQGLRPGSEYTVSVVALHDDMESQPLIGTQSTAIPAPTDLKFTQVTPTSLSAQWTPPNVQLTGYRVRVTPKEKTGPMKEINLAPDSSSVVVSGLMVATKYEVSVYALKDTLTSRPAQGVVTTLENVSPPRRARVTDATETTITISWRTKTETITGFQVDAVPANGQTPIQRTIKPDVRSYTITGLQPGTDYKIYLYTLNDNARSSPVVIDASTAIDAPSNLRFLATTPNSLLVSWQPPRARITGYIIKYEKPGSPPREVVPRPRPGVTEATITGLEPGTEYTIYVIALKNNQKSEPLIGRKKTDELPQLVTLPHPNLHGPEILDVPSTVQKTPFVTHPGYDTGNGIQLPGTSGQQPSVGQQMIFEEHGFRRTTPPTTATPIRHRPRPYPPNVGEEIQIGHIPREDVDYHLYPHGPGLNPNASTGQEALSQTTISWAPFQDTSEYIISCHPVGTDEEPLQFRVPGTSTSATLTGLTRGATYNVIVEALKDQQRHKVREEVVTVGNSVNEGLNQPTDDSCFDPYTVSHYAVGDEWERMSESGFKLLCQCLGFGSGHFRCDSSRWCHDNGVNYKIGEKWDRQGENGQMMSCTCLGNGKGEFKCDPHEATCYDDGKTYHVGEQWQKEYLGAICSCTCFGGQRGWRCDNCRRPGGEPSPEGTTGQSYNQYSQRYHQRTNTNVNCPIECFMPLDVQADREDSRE
T5 sequence (P59901 24-499): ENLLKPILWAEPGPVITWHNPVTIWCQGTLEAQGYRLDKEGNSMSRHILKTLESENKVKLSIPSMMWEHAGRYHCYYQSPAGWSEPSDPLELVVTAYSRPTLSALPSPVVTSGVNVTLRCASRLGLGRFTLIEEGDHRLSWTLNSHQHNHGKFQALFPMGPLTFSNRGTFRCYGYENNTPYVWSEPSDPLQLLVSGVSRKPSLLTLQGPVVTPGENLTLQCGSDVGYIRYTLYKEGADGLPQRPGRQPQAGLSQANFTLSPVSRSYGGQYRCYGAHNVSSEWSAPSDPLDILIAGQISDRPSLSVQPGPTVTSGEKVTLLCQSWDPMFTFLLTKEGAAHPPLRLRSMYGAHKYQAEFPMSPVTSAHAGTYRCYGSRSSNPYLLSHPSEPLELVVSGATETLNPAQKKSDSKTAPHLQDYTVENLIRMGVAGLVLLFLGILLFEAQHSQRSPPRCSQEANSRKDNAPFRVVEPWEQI
T4 sequence (A0A2K5VIP6 entry or part of it): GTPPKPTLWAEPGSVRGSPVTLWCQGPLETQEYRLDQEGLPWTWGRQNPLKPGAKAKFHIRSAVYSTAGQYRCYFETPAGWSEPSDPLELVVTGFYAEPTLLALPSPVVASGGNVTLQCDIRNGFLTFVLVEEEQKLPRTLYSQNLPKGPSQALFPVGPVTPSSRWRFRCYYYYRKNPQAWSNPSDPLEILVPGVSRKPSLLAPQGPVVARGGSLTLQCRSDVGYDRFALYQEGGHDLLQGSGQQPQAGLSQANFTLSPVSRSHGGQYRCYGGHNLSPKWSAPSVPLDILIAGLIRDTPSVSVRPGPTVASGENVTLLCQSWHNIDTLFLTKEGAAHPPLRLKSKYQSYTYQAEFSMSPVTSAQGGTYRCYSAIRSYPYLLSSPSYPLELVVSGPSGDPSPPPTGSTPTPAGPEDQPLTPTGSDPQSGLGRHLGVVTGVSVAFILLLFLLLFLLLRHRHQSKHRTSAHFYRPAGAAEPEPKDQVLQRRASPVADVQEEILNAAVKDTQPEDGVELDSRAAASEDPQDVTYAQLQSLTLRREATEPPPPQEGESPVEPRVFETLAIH
T1 sequence (A6NI73 42-299): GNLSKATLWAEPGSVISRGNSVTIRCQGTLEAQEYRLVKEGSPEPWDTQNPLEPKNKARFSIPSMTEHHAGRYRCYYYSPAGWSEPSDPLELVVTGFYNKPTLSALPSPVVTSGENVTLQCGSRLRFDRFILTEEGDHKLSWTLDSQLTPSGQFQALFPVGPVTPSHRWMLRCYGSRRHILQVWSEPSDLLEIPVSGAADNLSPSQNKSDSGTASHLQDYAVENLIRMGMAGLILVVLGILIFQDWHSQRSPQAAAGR

B1: anti-ILT3 antibody 16C5 (antibody, V domains shown)
VH: EVQLQQSGPELVKPGASVKISCKASGYTFTDYNMDWVKQSHGKSLEWIGYIYPSNGGTGYNQKFKSKATLTVDKSSNTAYMELHSLTSEDSAVYYCARVPYYDYLYYYAMDYWGQGTSVTVSS
VL: QIVLSQSPAILSASPGEKVTMACRASSSVSFMHWYQQKPGSSPQPWIYATSNLASGVPARFSGSGSGTSYSLTISRVEAEDAATYYCQQWSTNPYMYTFGGGTKLEIK
notes: Mouse monoclonal antibody from hybridoma
binding result [1]: binds
binding result [2]: no binding (tested: log [Ab] about -7.2 M (about 6e-8 M))
binding result [3]: no binding (tested: log [Ab] about -7.2 M (about 6e-8 M))
IC50 (read off the curve) [4]: ~0.2 nM
EC50 (read off the curve) [5]: ~0.9 nM
binding result [6]: no binding (tested: log [Ab] about -7.2 M (about 6e-8 M))
binding result [7]: no binding (tested: log [Ab] about -7.2 M (about 6e-8 M))
Kd [8]: 0.31 nM
koff [8]: 9e-05 s⁻¹
kon [8]: 290000 M⁻¹ s⁻¹
Kd [9]: 1.8 nM
koff [9]: 0.0002 s⁻¹
kon [9]: 110000 M⁻¹ s⁻¹
binding result [10]: no binding (tested: log [Ab] about -7.2 M (about 6e-8 M))
binding result [11]: no binding (tested: log [Ab] about -7.2 M (about 6e-8 M))
binding result [12]: binds
binding result [13]: no binding (tested: log [Ab] about -7.2 M (about 6e-8 M))
EC50 (read off the curve) [14]: ~2 nM
binding result [15]: binds

B2: anti-ILT3 antibody ch5A7 (parental chimeric 5A7) (antibody, V domains shown)
VH: EVKLVESGGGLVKPGGSLKLSCAASGFTFSSYGMSWVRQTPEKRLEWVATISGGGSYTNYPDSVKGRLTISRDNAKKNLYLEMSSLRSEDTALYYCARREWRMTLYAMDYWGQGTSVTVSS
VL: NIVLTQSPASLAVSLGQRATISCRASESVDSYGNSFMHWYQQKPGQAPKLLIYLTSNLESGVPARFSGSGSRTDFTLTIDPVEADDAATYYCQQNNEDPFTFGSGTKLEIK
IC50 (read off the curve) [4]: ~0.01 nM
Kd [16]: 2.4 nM
koff [16]: 0.018 s⁻¹
kon [16]: 7.5e+06 M⁻¹ s⁻¹
Kd [17]: 0.57 nM
koff [17]: 0.0017 s⁻¹
kon [17]: 2.9e+06 M⁻¹ s⁻¹

B3: anti-ILT3 antibody Hz5A7.v5 (antibody, human IgG1, kappa, N297G, V domains shown)
VH: EVQLVESGGGLVQPGGSLRLSCAASGFTFSSYGMSWVRQAPGKGLEWVATISGGGSYTNYPDSVKGRFTISRDNAKNSLYLQMNSLRAEDTAVYYCARREWRYTLYAMDYWGQGTTVTVSS
VL: DIQLTQSPSFLSASVGDRVTITCRASESVESYGSSFMHWYQQKPGKAPKLLIYLTSNLESGVPSRFSGSGSGTEFTLTISSLQPEDFATYYCQQNNEDPFTFGQGTKLEIKR
notes: Humanized 5A7 variant
EC50 (read off the curve) [18]: ~0.2 nM
Kd [16]: 0.7 nM
koff [16]: 0.0071 s⁻¹
kon [16]: 1.1e+07 M⁻¹ s⁻¹
Kd [17]: 0.28 nM
koff [17]: 0.00081 s⁻¹
kon [17]: 2.8e+06 M⁻¹ s⁻¹

B4: human LAIR1ECD-Fc (Fc fusion, UniProt Q6GTX8 22-165, looked up)
chain: QEEDLPRPSISAEPGTVIPLGSHVTFVCRGPVGVQTFRLERDSRSTYNDTEDVSQASPSESEARFRIDSVREGNAGLYRCIYYKPPKWSEQSDYLELLVKESSGGPDSPDTEPGSSAGPTQRPSDNSHNEHAPASQGLKAEHLY
notes: extracellular domain; not shown: Fc region
binding result [19]: no binding (tested: 125-4000 nM)
Kd [20]: ≥ 5000 nM
